Test results taken from patent US20260266848A1, “COMPOSITIONS AND METHODS FOR DIAGNOSING AND TREATING DYSTONIA” (Duke University, priority 2023, published 2026).

B1: SEC31A (protein, UniProt O94979 1-1220, looked up)
Protein transport protein …: MKLKEVDRTAMQAWSPAQNHPIYLATGTSAQQLDATFSTNASLEIFELDLSDPSLDMKSCATFSSSHRYHKLIWGPYKMDSKGDVSGVLIAGGENGNIILYDPSKIIAGDKEVVIAQNDKHTGPVRALDVNIFQTNLVASGANESEIYIWDLNNFATPMTPGAKTQPPEDISCIAWNRQVQHILASASPSGRATVWDLRKNEPIIKVSDHSNRMHCSGLAWHPDVATQMVLASEDDRLPVIQMWDLRFASSPLRVLENHARGILAIAWSMADPELLLSCGKDAKILCSNPNTGEVLYELPTNTQWCFDIQWCPRNPAVLSAASFDGRISVYSIMGGSTDGLRQKQVDKLSSSFGNLDPFGTGQPLPPLQIPQQTAQHSIVLPLKKPPKWIRRPVGASFSFGGKLVTFENVRMPSHQGAEQQQQQHHVFISQVVTEKEFLSRSDQLQQAVQSQGFINYCQKKIDASQTEFEKNVWSFLKVNFEDDSRGKYLELLGYRKEDLGKKIALALNKVDGANVALKDSDQVAQSDGEESPAAEEQLLGEHIKEEKEESEFLPSSGGTFNISVSGDIDGLITQALLTGNFESAVDLCLHDNRMADAIILAIAGGQELLARTQKKYFAKSQSKITRLITAVVMKNWKEIVESCDLKNWREALAAVLTYAKPDEFSALCDLLGTRLENEGDSLLQTQACLCYICAGNVEKLVACWTKAQDGSHPLSLQDLIEKVVILRKAVQLTQAMDTSTVGVLLAAKMSQYANLLAAQGSIAAALAFLPDNTNQPNIMQLRDRLCRAQGEPVAGHESPKIPYEKQQLPKGRPGPVAGHHQMPRVQTQQYYPHGENPPPPGFIMHGNVNPNAAGQLPTSPGHMHTQVPPYPQPQPYQPAQPYPFGTGGSAMYRPQQPVAPPTSNAYPNTPYISSASSYTGQSQLYAAQHQASSPTSSPATSFPPPPSSGASFQHGGPGAPPSSSAYALPPGTTGTLPAASELPASQRTGPQNGWNDPPALNRVPKKKKMPENFMPPVPITSPIMNPLGDPQSQMLQQQPSAPVPLSSQSSFPQPHLPGGQPFHGVQQPLGQTGMPPSFSKPNIEGAPGAPIGNTFQHVQSLPTKKITKKPIPDEHLILKTTFEDLIQRCLSSATDPQTKRKLDDASKRLEFLYDKLREQTLSPTITSGLHNIARSIETRNYSEGLTMHTHIVSTSNFSETSAFMPVLKVVLTQANKLGV
B2: PSMD12 (protein, UniProt O00232 2-456, looked up)
26S proteasome non-ATPase …: ADGGSERADGRIVKMEVDYSATVDQRLPECAKLAKEGRLQEVIETLLSLEKQTRTASDMVSTSRILVAVVKMCYEAKEWDLLNENIMLLSKRRSQLKQAVAKMVQQCCTYVEEITDLPIKLRLIDTLRMVTEGKIYVEIERARLTKTLATIKEQNGDVKEAASILQELQVETYGSMEKKERVEFILEQMRLCLAVKDYIRTQIISKKINTKFFQEENTEKLKLKYYNLMIQLDQHEGSYLSICKHYRAIYDTPCIQAESEKWQQALKSVVLYVILAPFDNEQSDLVHRISGDKKLEEIPKYKDLLKLFTTMELMRWSTLVEDYGMELRKGSLESPATDVFGSTEEGEKRWKDLKNRVVEHNIRIMAKYYTRITMKRMAQLLDLSVDESEAFLSNLVVNKTIFAKVDRLAGIINFQRPKDPNNLLNDWSQKLNSLMSLVNKTTHLIAKEEMIHNLQ
B3: ANO6 (protein, UniProt Q4KMQ2 1-910, looked up)
Anoctamin-6: MKKMSRNVLLQMEEEEDDDDGDIVLENLGQTIVPDLGSLESQHDFRTPEFEEFNGKPDSLFFNDGQRRIDFVLVYEDESRKETNKKGTNEKQRRKRQAYESNLICHGLQLEATRSVLDDKLVFVKVHAPWEVLCTYAEIMHIKLPLKPNDLKNRSSAFGTLNWFTKVLSVDESIIKPEQEFFTAPFEKNRMNDFYIVDRDAFFNPATRSRIVYFILSRVKYQVINNVSKFGINRLVNSGIYKAAFPLHDCKFRRQSEDPSCPNERYLLYREWAHPRSIYKKQPLDLIRKYYGEKIGIYFAWLGYYTQMLLLAAVVGVACFLYGYLNQDNCTWSKEVCHPDIGGKIIMCPQCDRLCPFWKLNITCESSKKLCIFDSFGTLVFAVFMGVWVTLFLEFWKRRQAELEYEWDTVELQQEEQARPEYEARCTHVVINEITQEEERIPFTAWGKCIRITLCASAVFFWILLIIASVIGIIVYRLSVFIVFSAKLPKNINGTDPIQKYLTPQTATSITASIISFIIIMILNTIYEKVAIMITNFELPRTQTDYENSLTMKMFLFQFVNYYSSCFYIAFFKGKFVGYPGDPVYWLGKYRNEECDPGGCLLELTTQLTIIMGGKAIWNNIQEVLLPWIMNLIGRFHRVSGSEKITPRWEQDYHLQPMGKLGLFYEYLEMIIQFGFVTLFVASFPLAPLLALVNNILEIRVDAWKLTTQFRRLVPEKAQDIGAWQPIMQGIAILAVVTNAMIIAFTSDMIPRLVYYWSFSVPPYGDHTSYTMEGYINNTLSIFKVADFKNKSKGNPYSDLGNHTTCRYRDFRYPPGHPQEYKHNIYYWHVIAAKLAFIIVMEHVIYSVKFFISYAIPDVSKRTKSKIQREKYLTQKLLHENHLKDMTKNMGVIAERMIEAVDNNLRPKSE
B4: RBM3 (protein, UniProt P98179 1-157, looked up)
RNA-binding protein 3: MSSEEGKLFVGGLNFNTDEQALEDHFSSFGPISEVVVVKDRETQRSRGFGFITFTNPEHASVAMRAMNGESLDGRQIRVDHAGKSARGTRGGGFGAHGRGRSYSRGGGDQGYGSGRYYDSRPGGYGYGYGRSRDYNGRNQGGYDRYSGGNYRDNYDN
B5: LRRC59 (protein, UniProt Q96AG4 1-307, looked up)
Leucine-rich …: MTKAGSKGGNLRDKLDGNELDLSLSDLNEVPVKELAALPKATILDLSCNKLTTLPSDFCGLTHLVKLDLSKNKLQQLPADFGRLVNLQHLDLLNNKLVTLPVSFAQLKNLKWLDLKDNPLDPVLAKVAGDCLDEKQCKQCANKVLQHMKAVQADQERERQRRLEVEREAEKKREAKQRAKEAQERELRKREKAEEKERRRKEYDALKAAKREQEKKPKKEANQAPKSKSGSRPRKPPPRKHTRSWAVLKLLLLLLLFGVAGGLVACRVTELQQQPLCTSVNTIYDNAVQGLRRHEILQWVLQTDSQQ
B6: PITPNB (protein, UniProt P48739 1-271, looked up)
Phosphatidylinositol transfer …: MVLIKEFRVVLPCSVQEYQVGQLYSVAEASKNETGGGEGIEVLKNEPYEKDGEKGQYTHKIYHLKSKVPAFVRMIAPEGSLVFHEKAWNAYPYCRTIVTNEYMKDDFFIKIETWHKPDLGTLENVHGLDPNTWKTVEIVHIDIADRSQVEPADYKADEDPALFQSVKTKRGPLGPNWKKELANSPDCPQMCAYKLVTIKFKWWGLQSKVENFIQKQEKRIFTNFHRQLFCWIDKWIDLTMEDIRRMEDETQKELETMRKRGSVRGTSAADV
B7: EHD4 (protein, UniProt Q9H223 1-541, looked up)
EH domain-containing protein 4: MFSWMGRQAGGRERAGGADAVQTVTGGLRSLYLRKVLPLEEAYRFHEFHSPALEDADFENKPMILLVGQYSTGKTTFIRYLLEQDFPGMRIGPEPTTDSFIAVMYGETEGSTPGNALVVDPKKPFRKLSRFGNAFLNRFMCSQLPNQVLKSISVIDSPGILSGEKQRISRGYDFCQVLQWFAERVDRIILLFDAHKLDISDEFSEAIKAFRGQDDKIRVVLNKADQVDTQQLMRVYGALMWSLGKVINTPEVLRVYIGSFWAQPLQNTDNRRLFEAEAQDLFRDIQSLPQKAAVRKLNDLIKRARLAKVHAYIISYLKKEMPSVFGKENKKRELISRLPEIYIQLQREYQISAGDFPEVKAMQEQLENYDFTKFHSLKPKLIEAVDNMLSNKISPLMNLISQEETSTPTQLVQGGAFDGTTEGPFNQGYGEGAKEGADEEEWVVAKDKPVYDELFYTLSPINGKISGVNAKKEMVTSKLPNSVLGKIWKLADCDCDGMLDEEEFALAKHLIKIKLDGYELPSSLPPHLVPPSHRKSLPKAD
B8: TUBB1 (protein, UniProt Q9H4B7 1-451, looked up)
Tubulin beta-1 chain: MREIVHIQIGQCGNQIGAKFWEMIGEEHGIDLAGSDRGASALQLERISVYYNEAYGRKYVPRAVLVDLEPGTMDSIRSSKLGALFQPDSFVHGNSGAGNNWAKGHYTEGAELIENVLEVVRHESESCDCLQGFQIVHSLGGGTGSGMGTLLMNKIREEYPDRIMNSFSVMPSPKVSDTVVEPYNAVLSIHQLIENADACFCIDNEALYDICFRTLKLTTPTYGDLNHLVSLTMSGITTSLRFPGQLNADLRKLAVNMVPFPRLHFFMPGFAPLTAQGSQQYRALSVAELTQQMFDARNTMAACDLRRGRYLTVACIFRGKMSTKEVDQQLLSVQTRNSSCFVEWIPNNVKVAVCDIPPRGLSMAATFIGNNTAIQEIFNRVSEHFSAMFKRKAFVHWYTSEGMDINEFGEAENNIHDLVSEYQQFQDAKAVLEEDEEVTEEAEMEPEDKGH
B9: ACAA1 (protein, UniProt P09110 27-424, looked up)
3-ketoacyl-CoA thiolase, …: LSGAPQASAADVVVVHGRRTAICRAGRGGFKDTTPDELLSAVMTAVLKDVNLRPEQLGDICVGNVLQPGAGAIMARIAQFLSDIPETVPLSTVNRQCSSGLQAVASIAGGIRNGSYDIGMACGVESMSLADRGNPGNITSRLMEKEKARDCLIPMGITSENVAERFGISREKQDTFALASQQKAARAQSKGCFQAEIVPVTTTVHDDKGTKRSITVTQDEGIRPSTTMEGLAKLKPAFKKDGSTTAGNSSQVSDGAAAILLARRSKAEELGLPILGVLRSYAVVGVPPDIMGIGPAYAIPVALQKAGLTVSDVDIFEINEAFASQAAYCVEKLRLPPEKVNPLGGAVALGHPLGCTGARQVITLLNELKRRGKRAYGVVSMCIGTGMGAAAVFEYPGN
B10: MARS1 (protein, UniProt P56192 1-900, looked up)
Methionine--tRNA ligase, …: MRLFVSDGVPGCLPVLAAAGRARGRAEVLISTVGPEDCVVPFLTRPKVPVLQLDSGNYLFSTSAICRYFFLLSGWEQDDLTNQWLEWEATELQPALSAALYYLVVQGKKGEDVLGSVRRALTHIDHSLSRQNCPFLAGETESLADIVLWGALYPLLQDPAYLPEELSALHSWFQTLSTQEPCQRAAETVLKQQGVLALRPYLQKQPQPSPAEGRAVTNEPEEEELATLSEEEIAMAVTAWEKGLESLPPLRPQQNPVLPVAGERNVLITSALPYVNNVPHLGNIIGCVLSADVFARYSRLRQWNTLYLCGTDEYGTATETKALEEGLTPQEICDKYHIIHADIYRWFNISFDIFGRTTTPQQTKITQDIFQQLLKRGFVLQDTVEQLRCEHCARFLADRFVEGVCPFCGYEEARGDQCDKCGKLINAVELKKPQCKVCRSCPVVQSSQHLFLDLPKLEKRLEEWLGRTLPGSDWTPNAQFITRSWLRDGLKPRCITRDLKWGTPVPLEGFEDKVFYVWFDATIGYLSITANYTDQWERWWKNPEQVDLYQFMAKDNVPFHSLVFPCSALGAEDNYTLVSHLIATEYLNYEDGKFSKSRGVGVFGDMAQDTGIPADIWRFYLLYIRPEGQDSAFSWTDLLLKNNSELLNNLGNFINRAGMFVSKFFGGYVPEMVLTPDDQRLLAHVTLELQHYHQLLEKVRIRDALRSILTISRHGNQYIQVNEPWKRIKGSEADRQRAGTVTGLAVNIAALLSVMLQPYMPTVSATIQAQLQLPPPACSILLTNFLCTLPAGHQIGTVSPLFQKLENDQIESLRQRFGGGQAKTSPKPAVVETVTTAKPQQIQALMDEVTKQGNIVRELKAQKADKNEVAAEVAKLLDLKKQLAVAEGKPPEAPKGKKKK

The molecules below were run on DYT1 patient plasma derived EVs (assay: Plasma-derived EV proteomics (ExoQuick ULTRA, DIA LC/MS/MS), DYT1 vs Healthy Controls). Conditions: Hs. Plasma EVs (DYT1/WT); significance of genotype difference.
Design: species or system human
Method in brief: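 Quantitative LC/MS/MS in data-independent acquisition on an Orbitrap Astral (4 m/z windows over m/z 380-980, HCD 27%), 500 ng of each EV sample. EVs were isolated from plasma by ExoQuick ULTRA, separated by EvoSep SPD30 gradient at 50 C.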

How did the “-LogP” value turn out when B1 was run?
The value was 1.85.

For B2, which “-LogP” value is on record?
Its value is 1.461.

With B3 as the molecule, how does the “-LogP” value read?
Its value is 1.411.

For B4, which “-LogP” value is on record?
Its value is 2.179.

Which “-LogP” value does the source give for B5 here?
Its value is 1.584.

For B6, which “-LogP” value is on record?
The value was 1.575.

With B7 as the molecule, how does the “-LogP” value read?
The value was 3.322.

With B8 as the molecule, how does the “-LogP” value read?
Its value is 2.267.

For B9, which “-LogP” value is on record?
Its value is 1.434.

Which “-LogP” value does the source give for B10 here?
Its value is 1.714.
